Laboratory results from patent US20180346555A1 (Regeneron, published 2018).

T1: natural Bet v 1 (Betula verrucosa (Betula pendula), UniProt P15494 2-160)
T1 construct: Bought natural protein; also called nBet v 1
T1 chain: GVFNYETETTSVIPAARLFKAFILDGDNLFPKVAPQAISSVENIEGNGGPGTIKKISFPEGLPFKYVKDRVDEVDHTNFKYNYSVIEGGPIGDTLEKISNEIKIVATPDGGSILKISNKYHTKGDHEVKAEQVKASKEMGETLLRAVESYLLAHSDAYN


Columns and labels:
natural Bet v 1 [1] = target: T1, natural Bet v 1; experiment: SPR Biacore 4000, mAb captured on anti-human Fc, 37C;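 also: kinetic rate constants from SPR sensorgrams fitted to a 1:1 model with mass transport limitation, HBS-ET buffer pH 7.4, KD and t½ derived from the rate constants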
Description: (§1) Equilibrium dissociation constants (KD) for natural Bet v 1 binding to purified anti-Bet v 1 monoclonal antibodies were determined using a real-time surface plasmon resonance biosensor (SPR-Biacore) on a Biacore 4000 instrument. All binding studies were performed in 10 mM HEPES, 150 mM NaCl, 3 mM EDTA, and 0.05% v/v surfactant Tween-20, pH 7.4 (HBS-ET) running buffer at 25° C. and 37° C. […] Association (kₐ) and dissociation (kd) rate constants were determined by fitting the real-time binding sensorgrams to a 1:1 binding model with mass transport limitation using Scrubber 2.0c curve-fitting software. Binding dissociation equilibrium constants (KD) and dissociative half-lives (t½) were calculated from the kinetic rate constants as:

natural Bet v 1 [2] = target: T1, natural Bet v 1; experiment: SPR Biacore 4000, mAb captured on anti-human Fc, 25C;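 also: purified anti-Bet v 1 mAbs probed with natural Bet v 1 in HBS-ET buffer (HEPES, NaCl, EDTA, Tween-20) at pH 7.4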
Description: as §1

| Binder | 100 nM natural Bet v 1 Bound (RU) (natural Bet v 1 [1]) | Kd (natural Bet v 1 [1]) [nM] | koff (natural Bet v 1 [1]) [s⁻¹] | kon (natural Bet v 1 [1]) [M⁻¹ s⁻¹] | t½ (natural Bet v 1 [1]) [min] | 100 nM natural Bet v 1 Bound (RU) (natural Bet v 1 [2]) | Kd (natural Bet v 1 [2]) [nM] | koff (natural Bet v 1 [2]) [s⁻¹] | kon (natural Bet v 1 [2]) [M⁻¹ s⁻¹] | t½ (natural Bet v 1 [2]) [min] |
| --- | --- | --- | --- | --- | --- | --- | --- | --- | --- | --- |
| H4H16946P (antibody, human IgG4, V domains shown) VH: EVQLVESGGGLVQPGGSLRLSCVASGFTFSNYDMNWVRQAPGEGLEWISYISYSDHNIYYIDSVKGRFTISRDNAKNSLYLQMNSLRAEDTAIYYCAREALASSSFDYWGQGTLVTVSS VL: EIVMTQSPATLSVSPGERVTLSCRASQSVSGNLAWYQQKPGQAPRLLIYSASTGATGVPARFSGSGSGTEFTLTISSLQSEDFALYYCQQYNKWPRTIGQGTKVEIK | 93 | 2.08 | 0.000601 | 289000 | 19 | 74 | 0.982 | 0.000201 | 205000 | 58 |
| H4H16991P (antibody, human IgG4, V domains shown) VH: QVQLVQSGAEVRKPGASVKVSCKASGYTFTGYYLHWVRQAPGQGLEWMGLINPNTGGTNFAQKFQGRVTMTRDSSISAAYMELSRLRSDDTAVYYCARQHWNRYFDNWGQGTLVTVSS VL: DIQMTQSPSTLSASVGDRVTITCRASQSVGNWLAWYQQKPGKAPKLLIQEASSIESGVPSRFSGSGSGTEFTLIVSSLQPDDFATYYCQQYNSYSWTFGHGTKVEIK | 66 | 2.16 | 0.00108 | 500000 | 11 | 57 | 1.06 | 0.000312 | 295000 | 37 |
| H4H16967P (antibody, human IgG4, V domains shown) VH: QVQLVESGGGVVQPGRSLRLSCAASGFTFSSYGMHWFRQAPGKGLEWVGVIWSDGSDKKYADSVKGRFTISRDNSKNTLYLLMNSLRDDDTAVYHCAREGGFLYSSSSHFDYWGQGTLVTVSS VL: AIQMTQSPSSLSASVGDRVTITCRTSQGIRNDLGWYQQKPGKAPKLLIFAASSLQSGVPSRFSGSGSGTDFTLTISSLQPEDFAIYYCLQDYKYPFTFGGGTKVEIK | 45 | 14.3 | 0.000719 | 50400 | 16 | 27 | 3.98 | 0.000149 | 37600 | 77 |
| H4H17033P (antibody, human IgG4, V domains shown) VH: QVQLVQSGAEVKKPGASVKVSCKASGYTFAAHYMHWVRQAPGQGLEWMGWINTYTGGTNYGQKFQGRVTMTRDTSITTAYMELSRLRSDDTAVYYCARDRRNWNFVFEYWGQGTLVTVSS VL: DIQMTQSPSSLSASVGDRVTISCRASQNIKNYLNWYQQKPGKAPKLLIYEASNLQSGAPSRFSGSGSGTDFTLTISSLEPEDFATYYCQQSFSIPWTFGQGTKVEIK | 74 | 1.9 | 0.00119 | 627000 | 10 | 61 | 1.19 | 0.000469 | 394000 | 25 |
| H4H16971P (antibody, human IgG4, V domains shown) VH: QVQLVESGGGVVQPGRSLRLSCAASGFTFSSYGLHWVRQAPGKGLEWVAVISDDGSYKFYADSMKGRFTISRDNSKNTLYLQMNSLRAEDTAVYYCAKDRGRSGWYYFDYWGQGTLVTVSS VL: not shown | 66 | 6.93 | 0.00244 | 352000 | 4.7 | 57 | 3.26 | 0.000781 | 240000 | 15 |
| H4H17028P (antibody, human IgG4, V domains shown) VH: QVQLVESGGGVVQPGRSLRLSCAASGFTFSRYAIHWVRQAPGKGLEWVAVISYDGDDKYYGDSVKGRFTISRDNSKTMVYLHMNSLRTEDTAVYYCAKDGYSLYGKDYFDYWGQGTLVTVSS VL: EIVLTQSPGTLPLSPGERATLSCRASQSITNSYLAWYQQKPDQAPRLLIYGASSRATGIPDRFSGSESGTDFTLTISRLEPEDFAVYYCQQYVRSPWTFGQGTKVEIK | 71 | 7.77 | 0.0029 | 373000 | 3.9 | 63 | 3.79 | 0.00107 | 281000 | 11 |
| H4H16943P (antibody, human IgG4, V domains shown, Fully human antibody) VH: EVQLVESGGGLVQPGGSLRLSCTASGFMSSMYWMSWVRQAPGKGLEWVSNIKQDGTEKNYVESVKGRFTISRDNAKNSLYLQINSLRGEDTAVYYCARDLYSSSSGYYYYGLDVWGQGTTVTVSS VL: DIVMTQSPLSLPVTPGEPASISCRSSQSLLHSNKYNYLDWYLQKPGQSPQLLIYLSSNRASGVPDRFSGSGSGTEFTLKISRVEAEDVGIYYCMQALHTPLTFGGGTKVEIK | 88 | 4.89 | 0.00127 | 260000 | 9.1 | 71 | 1.4 | 0.00023 | 164000 | 50 |

The remaining binders from weak to strong by Kd (natural Bet v 1 [1]), led by results:

| 100 nM natural Bet v 1 Bound (RU) (natural Bet v 1 [1]) | Kd (natural Bet v 1 [1]) [nM] | koff (natural Bet v 1 [1]) [s⁻¹] | kon (natural Bet v 1 [1]) [M⁻¹ s⁻¹] | t½ (natural Bet v 1 [1]) [min] | 100 nM natural Bet v 1 Bound (RU) (natural Bet v 1 [2]) | Kd (natural Bet v 1 [2]) [nM] | koff (natural Bet v 1 [2]) [s⁻¹] | kon (natural Bet v 1 [2]) [M⁻¹ s⁻¹] | t½ (natural Bet v 1 [2]) [min] | Binder |
| --- | --- | --- | --- | --- | --- | --- | --- | --- | --- | --- |
| 67 | 9.48 | 0.00093 | 98100 | 12 | 48 | 4.32 | 0.00027 | 62400 | 43 | H4H17027P (antibody, human IgG4, V domains shown) VH: EVQLVESGGGLVQPGGSLRLSCAASGFTFRNYAMHWVRQAPGEGLEWVAAIYRNSDSIDYADSVKGRFTISRDNAKNSLYLQMNSLKTEDTALYYCAKDEGFLEYFDSWGQGTLVTVSS VL: EIVLTQSPGTLSLSPGERASLSCRASQSVSSSFLAWYQQKPGQAPRLLIYGVSSRFIGIPDRFSGGGSGTDFTLTITRLEPEDFAVYYCQQYGRSPWTFGQGTKVEIK |
| 74 | 9.16 | 0.00477 | 520000 | 2.4 | 61 | 2.77 | 0.00114 | 410000 | 10 | H4H16987P (antibody, human IgG4 S228P, kappa, V domains shown, Human IgG4; also called MAB4) VH: EVQLVESGGGLVQPGGSLRLSCAASGFTVSSNSMSWVRQAPGEGLEWVSVIFSGGITYYSDSVKGRFTISRHNSKNTLYLQMNSLRTEDTAVYYCARHSNWNFDAFDIWGQGTMVTVSS VL: DIQMTQSPSSLSASVGDRVTITCRASQSFDTYLNWYQQKPGKAPNLLIYATSSLQSGVPSRFSGSGSGTDFTLTISSLQPEDFGTYYCQQSYSIPYTFGQGTKLEIKR |
| 76 | 8.57 | 0.00121 | 141000 | 10 | 58 | 5.23 | 0.000503 | 96100 | 23 | H4H16950P (antibody, human IgG4, V domains shown) VH: QVQLVQSGAEVKKPGASVKVSCKTSGYTFTNYGITWVRQAPGQGLEWMGWISAYNGNTNYAQNVQGRVTMTTDTSTSTAYMEVRSLRSDDTAVYYCARRSSMLHFQHWGQGTLVTVSS VL: DIVMTQSPDSLAVSLGERATINCKSSQHVLYDSSNENYLAWFQQKPGQPPKLLIYWASTRESGVPDRFSGSGSGTDFTLTISSLQAEDVAVYYCQQYSSAPYTFGQGTKLEIK |
| 84 | 2.7 | 0.000792 | 293000 | 15 | 68 | 1.34 | 0.000246 | 184000 | 47 | H4H17015P (antibody, human IgG4, V domains shown) VH: QVQLQESGPGLVKPSQTLSLTCTVSGGSISSADHYWSWIRQQPGKGLEWIGYISYRGTTYYNPTLESRVSISVDTFKNQFSLMLHSVTVADTAVYYCAKVLQGLVRFRDYGFDVWGQGTTVTVSS VL: DIQLTQSPPFLSASVGDRVTITCWASQDISSYLAWYQQNPGKSPKLLIYDAFTLHTGVPSRFSGSGSGTEFTLTISSLQPEDFATFYCQHLYSFPFTFGPGTKVDIK |
| 65 | 2.54 | 0.00168 | 662000 | 6.8 | 57 | 1.64 | 0.00069 | 422000 | 17 | H4H16960P (antibody, human IgG4, V domains shown) VH: QLQLQESGPGLVRPSETLSLTCTVSGGSISSSNYWWGWIRQPPGKGLEWIGSIYYSGITYYNPSLKSRVTISADTSKDQFSLKLRSVTAADTAVYYCAKLEWLRLDFWGQGTTVTVSS VL: DIQMTQSPSSVSASVGDRVTITCRASQGISSWLVWYQQKPGKVPKLLIYAASSLQSGVPLRFSGSGSGTDFTLTISSLQPEDFATYYCQQAKSFPLTFGQGTRLEIK |
| 87 | 2.52 | 0.00122 | 485000 | 9.5 | 71 | 1 | 0.000329 | 329000 | 35 | H4H17001P (antibody, human IgG4, V domains shown) VH: QVQLVESGGGLVKPGGSLRLSCAASGFTFSDYYMNWIRQAPGKGLEWISLISSSGSAIYYSDSVKGRFTISRDNARKSLYLQVNSLRAEDTAVYYCARDRGEWALGAYYYGLDVWGQGTTVTVSS VL: DIVMTQSPLSLPVTPGEPASISCRSSQSLLHSDGYNYLDWYLQKSGQSPQLLIYLGSNRASGVPDRFSGSGSGTDFTLKISRMEAEDVGVYYCMQALQTPYTFGQGTKLEIK |
| 52 | 1.8 | 0.000616 | 342000 | 19 | 41 | 1.21 | 0.000278 | 230000 | 42 | H4H16979P (antibody, human IgG4, V domains shown) VH: QVQLVQSGAEVKKPGASVKVSCKASGYTFIAYYLHWVRQAPGQGLEWMGLLNPYTGGSYYTQKFQGRVTMTRDTSIDTAYMELNSLRSDDTAIYYCARDKRSYYIPYAFEIWGQGTMVTVSS VL: not shown |
